US20100189719A1 (published 2010)

T1: human VEGF-B (human, UniProt P49765-2 22-188, limits assumed)
T1 sequence (looked up): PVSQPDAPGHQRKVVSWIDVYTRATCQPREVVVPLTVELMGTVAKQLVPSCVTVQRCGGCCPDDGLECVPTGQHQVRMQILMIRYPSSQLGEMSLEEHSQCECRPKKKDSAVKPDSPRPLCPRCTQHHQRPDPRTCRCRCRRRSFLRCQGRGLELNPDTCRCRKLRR

T2: human placenta growth factor (PlGF-2) (human, UniProt P49763-3 19-170, limits assumed)
T2 construct: also called human PlGF-2
T2 sequence (looked up): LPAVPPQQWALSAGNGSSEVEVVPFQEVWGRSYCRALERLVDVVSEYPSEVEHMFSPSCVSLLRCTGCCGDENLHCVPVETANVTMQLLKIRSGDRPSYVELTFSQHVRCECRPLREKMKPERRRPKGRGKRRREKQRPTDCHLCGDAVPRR

T3: murine VEGF-D (mVEGF-D) (mouse, UniProt P97946 98-206, limits assumed)
T3 sequence (looked up): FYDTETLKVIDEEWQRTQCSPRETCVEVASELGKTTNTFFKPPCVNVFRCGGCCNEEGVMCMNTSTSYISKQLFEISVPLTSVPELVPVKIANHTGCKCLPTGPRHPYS

T4: mouse placenta growth factor (PlGF-2) (mouse, UniProt P49764 19-158, limits assumed)
T4 construct: also called murine PlGF-2
T4 sequence (looked up): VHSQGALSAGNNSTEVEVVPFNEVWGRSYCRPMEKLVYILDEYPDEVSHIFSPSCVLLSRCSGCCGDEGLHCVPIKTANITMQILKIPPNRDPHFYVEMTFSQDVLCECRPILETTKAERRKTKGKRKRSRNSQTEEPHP

B1: murine VEGF (mVEGF) (ligand, mouse, UniProt Q00731-2 27-190, looked up)
chain: APTTEGEQKSHEVIKFMDVYQRSYCRPIETLVDIFQEYPDEIEYIFKPSCVPLMRCAGCCNDEALECVPTSESNITMQIMRIKPHQSQHIGEMSFLQHSRCECRPKKDRTKPENHCEPCSERRKHLFVQDPQTCKCSCKNTDSRCKARQLELNERTCRCDKPRR
notes: also called mouse VEGF
B2: G6 Fab (Fab, V domains shown)
VH: EVQLVESGGGLVQPGGSLRLSCAASGFTISDYWIHWVRQAPGKGLEWVAGITPAGGYTYYADSVKGRFTISADTSKNTAYLQMNSLRAEDTAVYYCARFVFFLPYAMDYWGQGTLVTVSS
VL: DIQMTQSPSSLSASVGDRVTITCRASQDVSTAVAWYQQKPGKAPKLLIYSASFLYSGVPSRFSGSGSGTDFTLTISSLQPEDFATYYCQQSYTTPPTFGQGTKVEIKR
notes: Purified Fab from E. coli in most assays; also called Fab G6; FabG6
B3: hVEGF displayed on phage (hVEGF1-109, wild type) (ligand, human, UniProt P15692 207-315, looked up)
chain: APMAEGGGQNHHEVVKFMDVYQRSYCHPIETLVDIFQEYPDEIEYIFKPSCVPLMRCGGCCNDEGLECVPTEESNITMQIMRIKPHQGQHIGEMSFLQHNKCECRPKKD
notes: Phage fusion partner not described; also called hVEGF displaying phage; hVEGF-phage
B4: second domain of Flt-1 (Flt-1D2) (receptor, UniProt P17948 129-229, looked up)
chain: SDTGRPFVEMYSEIPEIIHMTEGRELVIPCRVTSPNITVTLKKFPLDTLIPDGKRIIWDSRKGFIISNATYKEIGLLTCEATVNGHLYKTNYLTHRQTNTI
notes: domain: second domain of Flt-1 (Flt-1D2)

Columns and labels:
murine VEGF (mVEGF) [1] = target: B1; assay: BIAcore or solution binding ELISA, Fab
[2] = target: T5, full extracellular domain (ECD) of KDR (UniProt P35968 20-764, limits assumed); assay: phage-blocking assay: receptor fragment at increasing concentration competes with phage clones for mVEGF-coated wells
T5 construct: extracellular domain; also called KDR ECD

human VEGF-B = target: T1, human VEGF-B; assay: direct ELISA on coated homolog (2 ug/ml) with increasing G6 Fab
[3] = target: T2, human placenta growth factor (PlGF-2); assay: as above
murine VEGF-D (mVEGF-D) = target: T3, murine VEGF-D (mVEGF-D); assay: as above
[4] = target: T4, mouse placenta growth factor (PlGF-2); assay: as above
[5] = target: T6, Flt-1 ECD fragment (Ig domain1-5) (Flt-1D1-5) (UniProt P17948 27-553, limits assumed); assay: phage ELISA with wild type hVEGF phage
T6 construct: domain: Flt-1 ECD fragment (Ig domain1-5); also called Flt-1 receptor

murine VEGF (mVEGF) [6] = target: B1; assay: phage-blocking assay: receptor fragment at increasing concentration competes with phage clones for mVEGF-coated wells

T5 sequence (P35968 20-764 limits assumed): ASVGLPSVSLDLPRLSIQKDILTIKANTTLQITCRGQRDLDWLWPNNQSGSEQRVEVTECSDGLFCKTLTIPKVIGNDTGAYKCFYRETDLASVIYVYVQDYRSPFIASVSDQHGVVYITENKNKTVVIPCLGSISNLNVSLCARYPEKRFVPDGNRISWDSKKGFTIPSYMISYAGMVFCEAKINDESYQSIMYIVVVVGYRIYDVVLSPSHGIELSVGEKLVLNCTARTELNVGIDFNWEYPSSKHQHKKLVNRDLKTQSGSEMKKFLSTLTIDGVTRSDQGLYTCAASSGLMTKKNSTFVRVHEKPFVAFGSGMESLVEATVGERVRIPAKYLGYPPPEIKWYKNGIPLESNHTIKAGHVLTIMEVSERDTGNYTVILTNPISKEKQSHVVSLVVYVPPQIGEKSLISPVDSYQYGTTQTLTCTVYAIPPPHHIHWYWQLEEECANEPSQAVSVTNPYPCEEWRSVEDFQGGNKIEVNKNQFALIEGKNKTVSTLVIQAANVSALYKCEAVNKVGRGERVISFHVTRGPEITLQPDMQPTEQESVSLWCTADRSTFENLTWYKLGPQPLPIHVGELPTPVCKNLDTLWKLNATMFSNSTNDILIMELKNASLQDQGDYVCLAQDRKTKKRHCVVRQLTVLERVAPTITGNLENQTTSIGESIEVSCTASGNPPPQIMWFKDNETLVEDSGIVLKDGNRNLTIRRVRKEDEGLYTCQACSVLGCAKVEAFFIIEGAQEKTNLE
T6 sequence (P17948 27-553 limits assumed): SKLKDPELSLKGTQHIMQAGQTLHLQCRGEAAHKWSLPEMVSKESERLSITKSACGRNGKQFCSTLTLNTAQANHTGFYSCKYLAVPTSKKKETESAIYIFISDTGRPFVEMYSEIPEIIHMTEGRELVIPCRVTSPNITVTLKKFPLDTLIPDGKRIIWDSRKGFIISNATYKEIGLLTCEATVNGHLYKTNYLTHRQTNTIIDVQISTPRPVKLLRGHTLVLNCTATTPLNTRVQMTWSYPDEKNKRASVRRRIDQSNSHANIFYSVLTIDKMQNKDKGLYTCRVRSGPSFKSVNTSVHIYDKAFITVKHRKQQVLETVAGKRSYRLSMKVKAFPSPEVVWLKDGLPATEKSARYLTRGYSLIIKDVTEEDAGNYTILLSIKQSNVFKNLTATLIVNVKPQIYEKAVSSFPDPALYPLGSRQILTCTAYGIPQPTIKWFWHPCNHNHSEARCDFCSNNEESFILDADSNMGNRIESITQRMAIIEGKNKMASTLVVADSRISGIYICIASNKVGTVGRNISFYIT

Y0317 Fab
affinity (murine VEGF (mVEGF) [1]): 350 nM

B1
binding result [2]: binds

B2
binding result (human VEGF-B): no binding
binding result [3]: no binding
binding result (murine VEGF-D (mVEGF-D)): no binding
binding result [4]: no binding

B3
binding result [5]: binds

B4
binding result (murine VEGF (mVEGF) [6]): binds
